Source: IntAct's records for PubMed 30845169

B1: Centrosomal protein POC5 (Homo sapiens), Q8NA72 (parent)
chain: MSSDEEKYSLPVVQNDSSRGSSVSSNLQEEYEELLHYAIVTPNIEPCASQSSHPKGELVPDVRISTIHDILHSQGNNSEVRETAIEVGKGCDFHISSHSKTDESSPVLSPRKPSHPVMDFFSSHLLADSSSPATNSSHTDAHEILVSDFLVSDENLQKMENVLDLWSSGLKTNIISELSKWRLNFIDWHRMEMRKEKEKHAAHLKQLCNQINELKELQKTFEISIGRKDEVISSLSHAIGKQKEKIELMRTFFHWRIGHVRARQDVYEGKLADQYYQRTLLKKVWKVWRSVVQKQWKDVVERACQARAEEVCIQISNDYEAKVAMLSGALENAKAEIQRMQHEKEHFEDSMKKAFMRGVCALNLEAMTIFQNRNDAGIDSTNNKKEEYGPGVQGKEHSAHLDPSAPPMPLPVTSPLLPSPPAAVGGASATAVPSAASMTSTRAASASSVHVPVSALGAGSAATAASEEMYVPRVVTSAQQKAGRTITARITGRCDFASKNRISSSLAIMGVSPPMSSVVVEKHHPVTVQTIPQATAAKYPRTIHPESSTSASRSLGTRSAHTQSLTSVHSIKVVD

Variants of: B1
Details: with tba4a_human TUBA4A

| effect of a mutation on the interaction | Variant |
| --- | --- |
| decreasing interaction strength | A429V |

Variants of: B1
Details: with tba4a_human TUBA4A
Remark: another data set of the same source

| effect of a mutation on the interaction | Variant |
| --- | --- |
| disrupting interaction strength | A429V |
